Earlier results in US12258594B2, “Cas proteins with reduced immunogenicity and methods of screening thereof” (THE BROAD INSTITUTE, INC., priority 2018, dated 2025).
Residue numbers refer to the chain shown, from its start. Names and notes keep the numbering of the source.

B1: SaCas9 T787A: T787A mutant of SaCas9 (protein, UniProt J7RUA5 1-1053, looked up, variant T787A)
CRISPR-associated …: MKRNYILGLDIGITSVGYGIIDYETRDVIDAGVRLFKEANVENNEGRRSKRGARRLKRRRRHRIQRVKKLLFDYNLLTDHSELSGINPYEARVKGLSQKLSEEEFSAALLHLAKRRGVHNVNEVEEDTGNELSTKEQISRNSKALEEKYVAELQLERLKKDGEVRGSINRFKTSDYVKEAKQLLKVQKAYHQLDQSFIDTYIDLLETRRTYYEGPGEGSPFGWKDIKEWYEMLMGHCTYFPEELRSVKYAYNADLYNALNDLNNLVITRDENEKLEYYEKFQIIENVFKQKKKPTLKQIAKEILVNEEDIKGYRVTSTGKPEFTNLKVYHDIKDITARKEIIENAELLDQIAKILTIYQSSEDIQEELTNLNSELTQEEIEQISNLKGYTGTHNLSLKAINLILDELWHTNDNQIAIFNRLKLVPKKVDLSQQKEIPTTLVDDFILSPVVKRSFIQSIKVINAIIKKYGLPNDIIIELAREKNSKDAQKMINEMQKRNRQTNERIEEIIRTTGKENAKYLIEKIKLHDMQEGKCLYSLEAIPLEDLLNNPFNYEVDHIIPRSVSFDNSFNNKVLVKQEENSKKGNRTPFQYLSSSDSKISYETFKKHILNLAKGKGRISKTKKEYLLEERDINRFSVQKDFINRNLVDTRYATRGLMNLLRSYFRVNNLDVKVKSINGGFTSFLRRKWKFKKERNKGYKHHAEDALIIANADFIFKEWKKLDKAKKVMENQMFEEKQAESMPEIETEQEYKEIFITPHQIKHIKDFKDYKYSHRVDKKPNRELINDALYSTRKDDKGNTLIVNNLNGLYDKDNDKLKKLINKSPEKLLMYHHDPQTYQKLKLIMEQYGDEKNPLYKYYEETGNYLTKYSKKDNGPVIKKIKYYGNKLNAHLDITDDYPNSRNKVVKLSLKPYRFDVYLDNGVYKFVTVKNLDVIKKENYYEVNSKCYEEAKKLKKISNQAEFIASFYNNDLIKINGELYRVIGVNNDLLNRIEVNMIDITYREYLENMNDKRPPRIIKTIASKTQSIKKYSTDILGNLYEVKSKKHPQIIKKG
B2: H557A: H557A mutant of SaCas9 (protein, UniProt J7RUA5 1-1053, looked up, variant H557A)
CRISPR-associated …: B1 CRISPR-associated … with H557A, A787T
B3: E477A: E477A mutant of SaCas9 (protein, UniProt J7RUA5 1-1053, looked up, variant E477A)
CRISPR-associated …: B1 CRISPR-associated … with E477A, A787T
B4: D704A: D704A mutant of SaCas9 (protein, UniProt J7RUA5 1-1053, looked up, variant D704A)
CRISPR-associated …: B1 CRISPR-associated … with D704A, A787T
B5: N580A: N580A mutant of SaCas9 (protein, UniProt J7RUA5 1-1053, looked up, variant N580A)
CRISPR-associated …: B1 CRISPR-associated … with N580A, A787T
B6: D10A: D10A mutant of SaCas9 (protein, UniProt J7RUA5 1-1053, looked up, variant D10A)
CRISPR-associated …: B1 CRISPR-associated … with D10A, A787T
B7: Lys998: LbuCas13a with Lys998 substituted with alanine (protein, UniProt C7NBY4 1-1159, looked up, variant K998A)
CRISPR-associated …: MKVTKVGGISHKKYTSEGRLVKSESEENRTDERLSALLNMRLDMYIKNPSSTETKENQKRIGKLKKFFSNKMVYLKDNTLSLKNGKKENIDREYSETDILESDVRDKKNFAVLKKIYLNENVNSEELEVFRNDIKKKLNKINSLKYSFEKNKANYQKINENNIEKVEGKSKRNIIYDYYRESAKRDAYVSNVKEAFDKLYKEEDIAKLVLEIENLTKLEKYKIREFYHEIIGRKNDKENFAKIIYEEIQNVNNMKELIEKVPDMSELKKSQVFYKYYLDKEELNDKNIKYAFCHFVEIEMSQLLKNYVYKRLSNISNDKIKRIFEYQNLKKLIENKLLNKLDTYVRNCGKYNYYLQDGEIATSDFIARNRQNEAFLRNIIGVSSVAYFSLRNILETENENDITGRMRGKTVKNNKGEEKYVSGEVDKIYNENKKNEVKENLKMFYSYDFNMDNKNEIEDFFANIDEAISSIRHGIVHFNLELEGKDIFAFKNIAPSEISKKMFQNEINEKKLKLKIFRQLNSANVFRYLEKYKILNYLKRTRFEFVNKNIPFVPSFTKLYSRIDDLKNSLGIYWKTPKTNDDNKTKEIIDAQIYLLKNIYYGEFLNYFMSNNGNFFEISKEIIELNKNDKRNLKTGFYKLQKFEDIQEKIPKEYLANIQSLYMINAGNQDEEEKDTYIDFIQKIFLKGFMTYLANNGRLSLIYIGSDEETNTSLAEKKQEFDKFLKKYEQNNNIKIPYEINEFLREIKLGNILKYTERLNMFYLILKLLNHKELTNLKGSLEKYQSANKEEAFSDQLELINLLNLDNNRVTEDFELEADEIGKFLDFNGNKVKDNKELKKFDTNKIYFDGENIIKHRAFYNIKKYGMLNLLEKIADKAGYKISIEELKKYSNKKNEIEKNHKMQENLHRKYARPRKDEKFTDEDYESYKQAIENIEEYTHLKNKVEFNELNLLQGLLLRILHRLVGYTSIWERDLRFRLKGEFPENQYIEEIFNFENAKNVKYKGGQIVEKYIKFYKELHQNDEVKINKYSSANIKVLKQEKKDLYIRNYIAHFNYIPHAEISLLEVLENLRKLLSYDRKLKNAVMKSVVDILKEYGFVATFKIGADKKIGIQTLESEKIVHLKNLKKKKLMTDRNSEELCKLVKIMFEYKMEEKKSEN
B8: His473: LbuCas13a with His473 substituted with alanine (protein, UniProt C7NBY4 1-1159, looked up, variant H473A)
CRISPR-associated …: B7 CRISPR-associated … with H473A, A998K
B9: Asn997: LbuCas13a with Asn997 substituted with alanine (protein, UniProt C7NBY4 1-1159, looked up, variant N997A)
CRISPR-associated …: B7 CRISPR-associated … with N997A, A998K
B10: Phe995: LbuCas13a with Phe995 substituted with alanine (protein, UniProt C7NBY4 1-1159, looked up, variant F995A)
CRISPR-associated …: B7 CRISPR-associated … with F995A, A998K
B11: Lys558: LbuCas13a with alanine substituted for Lys558 (protein, UniProt C7NBY4 1-1159, looked up, variant K558A)
CRISPR-associated …: B7 CRISPR-associated … with K558A, A998K
B12: Arg809Ala: Arg809Ala mutant of LbuCas13a (protein, UniProt C7NBY4 1-1159, looked up, variant R809A)
CRISPR-associated …: B7 CRISPR-associated … with R809A, A998K
B13: Gln519Ala: Gln519Ala mutant of LbuCas13a (protein, UniProt C7NBY4 1-1159, looked up, variant Q519A)
CRISPR-associated …: B7 CRISPR-associated … with Q519A, A998K
B14: Lys718Ala: Lys718Ala mutant of LbuCas13a (protein, UniProt C7NBY4 1-1159, looked up, variant K718A)
CRISPR-associated …: B7 CRISPR-associated … with K718A, A998K
B15: Tyr601Ala: Tyr601Ala mutant of LbuCas13a (protein, UniProt C7NBY4 1-1159, looked up, variant Y601A)
CRISPR-associated …: B7 CRISPR-associated … with Y601A, A998K
B16: Lys942Ala: Lys942Ala mutant of LbuCas13a (protein, UniProt C7NBY4 1-1159, looked up, variant K942A)
CRISPR-associated …: B7 CRISPR-associated … with K942A, A998K
B17: Arg1135Ala: Arg1135Ala mutant of LbuCas13a (protein, UniProt C7NBY4 1-1159, looked up, variant R1135A)
CRISPR-associated …: B7 CRISPR-associated … with A998K, R1135A
B18: Tyr938Ala: Tyr938Ala mutant of LbuCas13a (protein, UniProt C7NBY4 1-1159, looked up, variant Y938A)
CRISPR-associated …: B7 CRISPR-associated … with Y938A, A998K
B19: Lys845Ala: Lys845Ala mutant of LbuCas13a (protein, UniProt C7NBY4 1-1159, looked up, variant K845A)
CRISPR-associated …: B7 CRISPR-associated … with K845A, A998K

system: target DNA; settings: SaCas9 mutants

Molecule | DNA cleavage activity
B1 | reduced DNA cleavage activity
B2 | almost completely lacked DNA cleavage activity
B3 | almost no DNA cleavage activity
B4 | almost no DNA cleavage activity
B5 | almost completely lacked DNA cleavage activity
B6 | almost no DNA cleavage activity

system: target RNA; settings: LbuCas13a HEPN mutants

Molecule | cleavage of target and non-target ssRNA substrate
B7 | significantly reduced the cleavage of both target and non-target ssRNA substrate
B8 | significantly reduced the cleavage of both target and non-target ssRNA substrate
B9 | significantly reduced the cleavage of both target and non-target ssRNA substrate
B10 | significantly reduced the cleavage of both target and non-target ssRNA substrate

same assay, conditions: LbuCas13a alanine mutants

Molecule | crRNA-guided target RNA cleavage activity
B11 | dramatically reduced crRNA-guided RNA cleavage
B12 | reduced target RNA cleavage activity
B13 | reduced cleavage activities
B14 | reduced target RNA cleavage activity
B15 | reduced target RNA cleavage activity
B16 | reduced target RNA cleavage activity
B17 | reduced cleavage activities
B18 | reduced target RNA cleavage activity
B19 | reduced target RNA cleavage activity
